Drawing on the Immune Epitope Database (IEDB), this text covers Kd for 2 sequences.

The target in test [1] is HLA-A*01:01. In words: IEDB peptide-MHC binding, purified MHC/direct/fluorescence; filed as Kd, often an IC50 or EC50 that approximates it; ≥ and ≤ were set here for values at or beyond the usual limits of such assays. To be noted: source organism: Marburg virus - Musoke, Kenya, 1980.
The target in a further test is HLA-A*02:01. The test is described as above.
The target in the next test is HLA-A*03:01. The description is as above. The note with it: source organism: Marburg virus - Musoke, Kenya, 1980.
Another test concerns the target HLA-A*11:01. Described as above.
The next test concerns the target HLA-A*26:03. Described as above.
The target of the next test is HLA-A*31:01. The description is as above.
Another test deals with HLA-A*68:02. The test is described as above.
The target in the next test is HLA-A*69:01. The test is described as above.
The target of another test is HLA-B*07:02. Described as above.
The target of a further test is HLA-B*08:02. The test is described as above. The note with it: source organism: Orthomarburgvirus marburgense.
The target of the next test is HLA-B*15:01. Described as above.
The next test addresses HLA-B*15:17. Described as above. The note with it: source organism: Marburg virus - Musoke, Kenya, 1980.
The target of a further test is HLA-B*18:01. Described as above.
The target in the next test is HLA-B*27:05. The test is described as above. The note with it: source organism: Marburg virus - Musoke, Kenya, 1980.
The next test concerns the target HLA-B*40:01. The test is described as above. To be noted: source organism: Marburg virus - Musoke, Kenya, 1980.
Another test concerns the target HLA-B*46:01. Described as above. The note with it: source organism: Marburg virus - Musoke, Kenya, 1980.
The next test has as its target HLA-B*48:01. The description is as above. To be noted: source organism: Marburg virus - Musoke, Kenya, 1980.
The target in the next test is HLA-B*57:01. Described as above.
The target of another test is HLA-B*58:01. The test is described as above.
The target of a further test is HLA-B*08:01. The description is as above. To be noted: source organism: Francisella tularensis subsp. holarctica LVS.
The target of the next test is HLA-B*15:09. The description is as above. The note with it: source organism: Francisella tularensis subsp. tularensis FSC033.
A further test concerns the target HLA-B*39:01. The description is as above. The note with it: source organism: Francisella tularensis subsp. tularensis FSC033.
Test [2] concerns the target HLA-A*01:01. In words: IEDB peptide-MHC binding, purified MHC/competitive/fluorescence; filed as Kd, often an IC50 or EC50 that approximates it; ≥ and ≤ were set here for values at or beyond the usual limits of such assays. To be noted: source organism: Francisella tularensis subsp. tularensis FSC198.
The target in another test is HLA-A*26:01. The description is as above. To be noted: source organism: Francisella tularensis subsp. tularensis FSC198.
The target in a further test is HLA-A*26:02. The test is described as above. To be noted: source organism: Francisella tularensis subsp. tularensis FSC198.
Where [3] appears, read: source organism: Marburg virus - Musoke, Kenya, 1980.
Setting [4] is: source organism: Francisella tularensis subsp. holarctica LVS.
The mark [5] stands for this setting: source organism: Francisella tularensis subsp. tularensis FSC033.

As a reminder, the Kd is a measure of binding affinity in units of concentration.

Take KLDFIRNTK: the Kd with HLA-A*01:01 [1] is at least 20 µM; with HLA-A*02:01 (setting [3]), at least 20 µM; with HLA-A*03:01, 0.0444 µM; with HLA-A*11:01 (setting [3]), 0.604 µM; with HLA-A*26:03 (source organism: Orthomarburgvirus marburgense), at least 20 µM; in the test with HLA-A*31:01 (setting [3]), 2.16 µM. The Kd with HLA-A*68:02 (setting [3]), with HLA-A*69:01 (setting [3]), with HLA-B*07:02 (setting [3]), in the test with HLA-B*08:02, with HLA-B*15:01 (setting [3]) and in the test with HLA-B*15:17 was at least 20 µM in each case. Also, the dissociation constant (Kd) in the test with HLA-B*18:01 (setting [3]), with HLA-B*27:05, in the test with HLA-B*40:01, with HLA-B*46:01, with HLA-B*48:01 and in the test with HLA-B*57:01 (setting [3]) was at least 20 µM throughout. Moreover, the Kd with HLA-B*58:01 (setting [3]) is at least 20 µM.

With EFKQILTDF, the Kd with HLA-A*02:01 (setting [4]), in the test with HLA-A*11:01 (setting [4]), with HLA-A*26:03 (setting [5]), with HLA-A*31:01 (setting [4]), with HLA-A*68:02 (setting [4]) and with HLA-A*69:01 (setting [4]) was at least 20 µM in each case. The Kd was at least 20 µM in the test with HLA-B*07:02 (setting [4]); 6 µM in the test with HLA-B*08:01; at least 20 µM with HLA-B*15:01 (setting [4]); at least 20 µM with HLA-B*15:09; 1.03 µM with HLA-B*18:01 (setting [5]); at least 20 µM with HLA-B*39:01. Besides, the Kd with HLA-B*57:01 (setting [4]) is at least 20 µM; with HLA-B*58:01 (setting [4]) it was at least 20 µM; with HLA-A*01:01 [2], at least 20 µM; with HLA-A*26:01, at least 20 µM; in the test with HLA-A*26:02, 0.457 µM.
